In article doi:10.1101/2020.03.03.974444:

Target: myc-tagged human Patched-1 (Ptch1-1B-myc) (human) (UniProt Q13635)
Experiment: co-IP

Sequence of UniProt Q13635 (Q13635 whole entry): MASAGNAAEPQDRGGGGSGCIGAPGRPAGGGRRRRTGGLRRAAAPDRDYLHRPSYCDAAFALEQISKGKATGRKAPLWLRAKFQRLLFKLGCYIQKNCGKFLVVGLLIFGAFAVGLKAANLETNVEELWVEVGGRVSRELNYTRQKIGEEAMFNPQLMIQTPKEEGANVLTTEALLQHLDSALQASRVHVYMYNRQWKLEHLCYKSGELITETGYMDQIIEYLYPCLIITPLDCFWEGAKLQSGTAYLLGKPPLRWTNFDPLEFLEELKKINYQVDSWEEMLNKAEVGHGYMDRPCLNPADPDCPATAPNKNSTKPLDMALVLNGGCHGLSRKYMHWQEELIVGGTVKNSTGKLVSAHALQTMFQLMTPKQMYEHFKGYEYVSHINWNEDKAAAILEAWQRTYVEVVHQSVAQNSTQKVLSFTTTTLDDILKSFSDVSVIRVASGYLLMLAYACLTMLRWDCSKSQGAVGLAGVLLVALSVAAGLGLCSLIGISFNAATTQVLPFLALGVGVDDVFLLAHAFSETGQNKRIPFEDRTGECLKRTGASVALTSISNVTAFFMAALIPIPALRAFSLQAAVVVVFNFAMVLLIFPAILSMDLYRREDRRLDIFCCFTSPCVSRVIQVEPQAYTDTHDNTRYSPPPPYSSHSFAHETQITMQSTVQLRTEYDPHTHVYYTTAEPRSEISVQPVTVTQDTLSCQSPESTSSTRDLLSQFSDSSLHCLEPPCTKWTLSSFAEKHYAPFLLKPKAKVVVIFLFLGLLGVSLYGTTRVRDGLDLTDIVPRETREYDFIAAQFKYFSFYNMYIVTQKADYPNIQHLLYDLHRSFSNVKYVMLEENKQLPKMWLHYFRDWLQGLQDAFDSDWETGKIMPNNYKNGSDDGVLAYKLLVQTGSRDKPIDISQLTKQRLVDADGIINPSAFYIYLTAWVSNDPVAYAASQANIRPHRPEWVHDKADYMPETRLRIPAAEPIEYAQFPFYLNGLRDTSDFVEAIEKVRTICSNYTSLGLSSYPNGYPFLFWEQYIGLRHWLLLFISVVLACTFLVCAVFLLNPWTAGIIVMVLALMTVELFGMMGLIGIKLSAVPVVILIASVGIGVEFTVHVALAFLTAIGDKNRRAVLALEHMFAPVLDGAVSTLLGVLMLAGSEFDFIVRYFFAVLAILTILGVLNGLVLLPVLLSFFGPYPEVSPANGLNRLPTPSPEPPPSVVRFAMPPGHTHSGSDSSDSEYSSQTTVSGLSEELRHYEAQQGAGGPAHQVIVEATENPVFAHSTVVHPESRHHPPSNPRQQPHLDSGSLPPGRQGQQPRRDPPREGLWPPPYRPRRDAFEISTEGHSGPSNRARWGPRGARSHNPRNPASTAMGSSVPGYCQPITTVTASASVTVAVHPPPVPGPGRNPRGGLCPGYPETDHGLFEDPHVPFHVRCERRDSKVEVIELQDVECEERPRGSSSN

N-terminal Sonic Hedgehog (N-Shh) (from UniProt Q62226 25-437) (domain or fragment)
percent reduction of FL-Dhh binding to Ptch1: 70 to 80%
